{"source": "paper PMC3105061", "target": "fluorescein labeled SecYEG reconstituted in proteoliposomes (E. coli) (UniProt P0AGA2)", "sequence (P0AGA2 whole entry, chain 1 of 3)": "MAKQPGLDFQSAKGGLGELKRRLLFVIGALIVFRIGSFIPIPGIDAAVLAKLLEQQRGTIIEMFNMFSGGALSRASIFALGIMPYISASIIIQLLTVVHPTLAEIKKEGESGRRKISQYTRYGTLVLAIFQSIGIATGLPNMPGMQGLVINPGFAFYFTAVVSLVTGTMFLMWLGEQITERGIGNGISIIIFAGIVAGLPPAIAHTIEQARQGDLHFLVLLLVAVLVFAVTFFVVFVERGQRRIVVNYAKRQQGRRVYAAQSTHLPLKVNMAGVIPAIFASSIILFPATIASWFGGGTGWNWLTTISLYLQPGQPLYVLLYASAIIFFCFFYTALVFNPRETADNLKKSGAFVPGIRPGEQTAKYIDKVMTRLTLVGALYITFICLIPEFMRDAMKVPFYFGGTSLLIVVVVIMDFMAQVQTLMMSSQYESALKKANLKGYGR", "sequence (P0AG96 whole entry, chain 2 of 3, further chain)": "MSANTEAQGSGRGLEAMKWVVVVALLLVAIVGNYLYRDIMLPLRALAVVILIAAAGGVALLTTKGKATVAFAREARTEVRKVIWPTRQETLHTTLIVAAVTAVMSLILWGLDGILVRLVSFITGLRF", "sequence (P0AG99 whole entry, chain 3 of 3, further chain)": "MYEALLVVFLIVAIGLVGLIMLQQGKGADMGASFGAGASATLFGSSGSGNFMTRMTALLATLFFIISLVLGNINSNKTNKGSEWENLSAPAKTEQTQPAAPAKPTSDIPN", "assay": "FRET or BRET; DCFBA-FRET on single proteoliposomes; SecYEG-FM (donor, 488 nm excitation) in PLs, proOmpA(C282)-DhfR-Atto647N (acceptor) in complex with SecB, SecA, NADPH and methotrexate, with or without ATP; in hydrogel of gelator 1 and in suspension; stalled translocation intermediate"}
{"substance": "fusion protein proOmpA(C282)-DhfR-Atto647N", "values": [{"measurement": "average FRET efficiency per liposome in the hydrogel compared to suspension", "value": 50, "unit": "%"}]}
